Measurements published in publication PMC5415106, “Dpb11 may function with RPA and DNA to initiate DNA replication”.

What was measured:
[1] = molecular target: TopBP1 full-length (Homo sapiens, UniProt Q92547 1-1522); test: EMSA; nearly 50% shifted at 20 nM; EMSA: 1 nM 32P-DNA, 20 mM Tris-HCl pH 7.5, 0.1 mM EDTA, 0.2 mM DTT, 10% glycerol, 40 mg/ml BSA (so in the source), 5 min at 30 C, 0.7% native agarose in 0.5x TBE; GST pull-down: 40 mM Tris-HCl pH 7.5, 100 mM NaCl, 0.1 mM EDTA, 10% glycerol, 0.1% Triton X-100, 1 mM DTT, 0.1 mg/ml BSA, 25 C; conditions: protein: recombinant, label: 32P
Chain of TopBP1 full-length (Q92547 whole entry): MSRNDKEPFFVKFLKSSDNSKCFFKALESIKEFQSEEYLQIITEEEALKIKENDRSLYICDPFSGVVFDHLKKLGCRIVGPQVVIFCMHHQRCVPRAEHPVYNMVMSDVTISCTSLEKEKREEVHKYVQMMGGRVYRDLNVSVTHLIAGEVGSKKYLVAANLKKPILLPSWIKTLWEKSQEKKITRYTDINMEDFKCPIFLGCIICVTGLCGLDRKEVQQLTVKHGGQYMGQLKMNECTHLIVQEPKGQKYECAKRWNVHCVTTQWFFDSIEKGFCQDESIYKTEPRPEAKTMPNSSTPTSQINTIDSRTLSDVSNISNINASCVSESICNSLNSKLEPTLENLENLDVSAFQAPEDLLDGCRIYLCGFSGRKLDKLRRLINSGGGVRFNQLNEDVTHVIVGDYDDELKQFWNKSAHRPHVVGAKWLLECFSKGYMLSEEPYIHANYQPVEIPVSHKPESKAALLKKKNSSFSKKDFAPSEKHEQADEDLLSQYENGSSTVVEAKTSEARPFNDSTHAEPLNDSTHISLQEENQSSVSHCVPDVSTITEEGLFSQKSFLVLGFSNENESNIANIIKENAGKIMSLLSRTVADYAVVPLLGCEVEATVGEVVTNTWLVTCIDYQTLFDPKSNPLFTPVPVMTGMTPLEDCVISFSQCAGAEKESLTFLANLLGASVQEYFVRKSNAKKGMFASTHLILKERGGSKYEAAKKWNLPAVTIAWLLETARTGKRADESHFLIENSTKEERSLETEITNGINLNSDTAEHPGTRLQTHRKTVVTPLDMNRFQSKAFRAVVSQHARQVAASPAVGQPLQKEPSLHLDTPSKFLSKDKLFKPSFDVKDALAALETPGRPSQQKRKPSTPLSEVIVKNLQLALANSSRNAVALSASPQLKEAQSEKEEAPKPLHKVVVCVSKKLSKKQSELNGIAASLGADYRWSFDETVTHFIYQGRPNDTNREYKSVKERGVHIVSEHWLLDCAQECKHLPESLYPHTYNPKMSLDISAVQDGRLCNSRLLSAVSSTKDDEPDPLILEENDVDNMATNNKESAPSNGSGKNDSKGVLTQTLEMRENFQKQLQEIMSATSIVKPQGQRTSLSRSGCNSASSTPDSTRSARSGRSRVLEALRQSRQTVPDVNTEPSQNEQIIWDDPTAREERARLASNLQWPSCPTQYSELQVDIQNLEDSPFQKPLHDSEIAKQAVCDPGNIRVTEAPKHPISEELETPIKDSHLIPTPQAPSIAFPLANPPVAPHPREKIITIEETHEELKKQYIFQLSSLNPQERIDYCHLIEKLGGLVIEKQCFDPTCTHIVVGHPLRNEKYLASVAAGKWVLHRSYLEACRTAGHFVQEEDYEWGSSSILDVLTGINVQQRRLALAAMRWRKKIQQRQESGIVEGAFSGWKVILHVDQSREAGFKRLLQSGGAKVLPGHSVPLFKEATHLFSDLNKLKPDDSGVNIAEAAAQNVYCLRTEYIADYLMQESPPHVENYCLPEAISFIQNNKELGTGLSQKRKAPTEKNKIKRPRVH

[2] = molecular target: T1, Dpb11 wild-type (Saccharomyces cerevisiae (budding yeast), UniProt P47027 1-764); test: EMSA; nearly 80% bound at 20 nM; EMSA: 1 nM 32P-DNA, 20 mM Tris-HCl pH 7.5, 0.1 mM EDTA, 0.2 mM DTT, 10% glycerol, 40 mg/ml BSA (so in the source), 5 min at 30 C, 0.7% native agarose in 0.5x TBE; GST pull-down: 40 mM Tris-HCl pH 7.5, 100 mM NaCl, 0.1 mM EDTA, 10% glycerol, 0.1% Triton X-100, 1 mM DTT, 0.1 mg/ml BSA, 25 C; conditions: protein: recombinant, (nickel column purification), label: 32P
T1 sequence: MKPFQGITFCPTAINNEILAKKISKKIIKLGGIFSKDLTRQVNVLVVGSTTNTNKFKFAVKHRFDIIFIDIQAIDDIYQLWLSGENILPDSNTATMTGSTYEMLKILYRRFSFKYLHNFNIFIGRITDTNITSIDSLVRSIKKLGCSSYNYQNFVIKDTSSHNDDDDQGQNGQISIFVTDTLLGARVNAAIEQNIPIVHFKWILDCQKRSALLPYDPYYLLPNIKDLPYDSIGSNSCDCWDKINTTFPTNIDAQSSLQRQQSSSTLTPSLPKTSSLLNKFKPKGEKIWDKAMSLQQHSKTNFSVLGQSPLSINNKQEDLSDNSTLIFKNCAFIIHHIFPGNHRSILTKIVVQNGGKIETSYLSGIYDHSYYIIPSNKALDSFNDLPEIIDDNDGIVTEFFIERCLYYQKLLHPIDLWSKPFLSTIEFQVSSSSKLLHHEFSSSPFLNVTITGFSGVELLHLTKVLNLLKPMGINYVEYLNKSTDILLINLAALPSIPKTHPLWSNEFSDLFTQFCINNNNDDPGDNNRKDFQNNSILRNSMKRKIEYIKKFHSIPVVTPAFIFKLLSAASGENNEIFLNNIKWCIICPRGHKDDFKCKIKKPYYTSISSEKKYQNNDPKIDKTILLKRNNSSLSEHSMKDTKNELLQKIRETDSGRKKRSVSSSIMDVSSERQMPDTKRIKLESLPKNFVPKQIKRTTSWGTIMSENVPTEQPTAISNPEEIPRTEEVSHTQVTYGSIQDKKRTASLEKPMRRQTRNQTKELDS

[3] = molecular target: T1, Dpb11 wild-type; test: EMSA; more than half bound at 40 nM; EMSA: 1 nM 32P-DNA, 20 mM Tris-HCl pH 7.5, 0.1 mM EDTA, 0.2 mM DTT, 10% glycerol, 40 mg/ml BSA (so in the source), 5 min at 30 C, 0.7% native agarose in 0.5x TBE; GST pull-down: 40 mM Tris-HCl pH 7.5, 100 mM NaCl, 0.1 mM EDTA, 10% glycerol, 0.1% Triton X-100, 1 mM DTT, 0.1 mg/ml BSA, 25 C; conditions: protein: recombinant; (nickel column purification); label: 32P
[4] = molecular target: T1, Dpb11 wild-type; test: EMSA; 320 nM required to bind more than half; EMSA: 1 nM 32P-DNA, 20 mM Tris-HCl pH 7.5, 0.1 mM EDTA, 0.2 mM DTT, 10% glycerol, 40 mg/ml BSA (so in the source), 5 min at 30 C, 0.7% native agarose in 0.5x TBE; GST pull-down: 40 mM Tris-HCl pH 7.5, 100 mM NaCl, 0.1 mM EDTA, 10% glycerol, 0.1% Triton X-100, 1 mM DTT, 0.1 mg/ml BSA, 25 C; conditions: protein: recombinant; (nickel column purification); label: 32P; blunt
[5] = molecular target: T1, Dpb11 wild-type; test: EMSA; 80 nM required to bind more than half; EMSA: 1 nM 32P-DNA, 20 mM Tris-HCl pH 7.5, 0.1 mM EDTA, 0.2 mM DTT, 10% glycerol, 40 mg/ml BSA (so in the source), 5 min at 30 C, 0.7% native agarose in 0.5x TBE; GST pull-down: 40 mM Tris-HCl pH 7.5, 100 mM NaCl, 0.1 mM EDTA, 10% glycerol, 0.1% Triton X-100, 1 mM DTT, 0.1 mg/ml BSA, 25 C; conditions: protein: recombinant, (nickel column purification), label: 32P
[6] = bubble: 31 bp and 22 bp duplexes flanking T80/T80 loop
[7] = fork 1:2, 31 bp duplex with two T80 arms

B1: bubble DNA (structured_DNA)
DNA 1: ATGTCCTAGCAAGCCAGAATTCGGCAGCGTCTTTTTTTTTTTTTTTTTTTTTTTTTTTTTTTTTTTTTTTTTTTTTTTTTTTTTTTTTTTTTTTTTTTTTTTTTTTTTTTTCCACGTCGGCGTCGCCACGAGC
DNA 2: GCTCGTGGCGACGCCGACGTGGTTTTTTTTTTTTTTTTTTTTTTTTTTTTTTTTTTTTTTTTTTTTTTTTTTTTTTTTTTTTTTTTTTTTTTTTTTTTTTTTGACGCTGCCGAATTCTGGCTTGCTAGGACAT
For B1, the “apparent K (half saturation)” value [1, 6] was ~20 nM and the “apparent K (half saturation)” value [2, 6] was < 20 nM.

B2: ssDNA (dT80) (ssDNA)
DNA: TTTTTTTTTTTTTTTTTTTTTTTTTTTTTTTTTTTTTTTTTTTTTTTTTTTTTTTTTTTTTTTTTTTTTTTTTTTTTTTT
For B2, the “apparent K (half saturation)” value [3] was < 40 nM.

B3: blunt dsDNA (dsDNA)
DNA 1: ATGTCCTAGCAAGCCAGAATTCGGCAGCGTC
DNA 2: GACGCTGCCGAATTCTGGCTTGCTAGGACAT
With B3 the “apparent K (half saturation)” value [4] was ~320 nM.

B4: fork DNA (structured_DNA)
DNA 1: ATGTCCTAGCAAGCCAGAATTCGGCAGCGTCTTTTTTTTTTTTTTTTTTTTTTTTTTTTTTTTTTTTTTTTTTTTTTTTTTTTTTTTTTTTTTTTTTTTTTTTTTTTTTTT
DNA 2: TTTTTTTTTTTTTTTTTTTTTTTTTTTTTTTTTTTTTTTTTTTTTTTTTTTTTTTTTTTTTTTTTTTTTTTTTTTTTTTTGACGCTGCCGAATTCTGGCTTGCTAGGACAT
In the case of B4, the “apparent K (half saturation)” value [1, 7] is reported as ~20 nM and the “apparent K (half saturation)” value [2, 7] is reported as < 20 nM.

B5: 5'-tailed DNA (mixed)
DNA 1: B3 DNA 1
DNA 2: B4 DNA 2
B5 was tested, and the “apparent K (half saturation)” value ([1]; 5' overhang 80 nt (T)) was ~20 nM and the “apparent K (half saturation)” value ([5]; 5' overhang 80 nt (T)) was ~80 nM.

B6: 3'-tailed DNA (mixed)
DNA 1: B3 DNA 2
DNA 2: B4 DNA 1
B6 was tested, and the “apparent K (half saturation)” value ([1]; 3' overhang 80 nt (T)) was ~20 nM and the “apparent K (half saturation)” value ([5]; 3' overhang 80 nt (T)) was ~80 nM.
